Results taken from publication PMC8184587.

T1: BRM AT (AT-hook alone) (Homo sapiens, UniProt P51531 1358-1377)
T1 chain: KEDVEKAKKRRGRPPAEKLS

B1: DNA.FA 12 bp dsDNA (dsDNA)
DNA 1: CCTCAATTGGTC
DNA 2: GACCAATTGAGG
B2: 10 bp NMR dsDNA (dsDNA)
DNA 1: CTCAATTGGT
DNA 2: ACCAATTGAG

Legend:
[1] = target: T2, BRM AT-L-BD WT (BRM-B) (Homo sapiens, UniProt P51531-2 1358-1490); test: fluorescence anisotropy
[2] = target: AT-LANAA-BD (Homo sapiens, UniProt P51531-2 1358-1490, P1378A;P1380A;P1381A); test: fluorescence anisotropy
[3] = target: T2, BRM AT-L-BD WT (BRM-B); test: NMR
[4] = target: ATDGDP-L-BD (Homo sapiens, UniProt P51531-2 1358-1490, R1368D;R1370D); test: NMR
[5] = target: ATGGGP-L-BD (Homo sapiens, UniProt P51531-2 1358-1490, R1368G;R1370G); test: NMR
[6] = target: T1, BRM AT (AT-hook alone); test: NMR

| Binder | Kd [1] [µM] | Kd [2] [µM] | Kd [3] [µM] | Kd [4] [µM] | Kd [5] [µM] | Kd [6] [µM] |
| --- | --- | --- | --- | --- | --- | --- |
| B1 | 8 ± 1 | 4 ± 1 | – | – | – | – |
| B2 | – | – | ~3 | 410 ± 70 | 130 ± 30 | 220 ± 30 |
